For 3 molecules, binding signal results are on record in patent US20240352434, “COMPOSITIONS COMPRISING A VARIANT CAS12I3 POLYPEPTIDE AND USES THEREOF” (Arbor Biotechnologies, Inc., published 2024).

One data set addresses T1, Cas12i3 S559R (Unidentified, S559R).
T1 chain: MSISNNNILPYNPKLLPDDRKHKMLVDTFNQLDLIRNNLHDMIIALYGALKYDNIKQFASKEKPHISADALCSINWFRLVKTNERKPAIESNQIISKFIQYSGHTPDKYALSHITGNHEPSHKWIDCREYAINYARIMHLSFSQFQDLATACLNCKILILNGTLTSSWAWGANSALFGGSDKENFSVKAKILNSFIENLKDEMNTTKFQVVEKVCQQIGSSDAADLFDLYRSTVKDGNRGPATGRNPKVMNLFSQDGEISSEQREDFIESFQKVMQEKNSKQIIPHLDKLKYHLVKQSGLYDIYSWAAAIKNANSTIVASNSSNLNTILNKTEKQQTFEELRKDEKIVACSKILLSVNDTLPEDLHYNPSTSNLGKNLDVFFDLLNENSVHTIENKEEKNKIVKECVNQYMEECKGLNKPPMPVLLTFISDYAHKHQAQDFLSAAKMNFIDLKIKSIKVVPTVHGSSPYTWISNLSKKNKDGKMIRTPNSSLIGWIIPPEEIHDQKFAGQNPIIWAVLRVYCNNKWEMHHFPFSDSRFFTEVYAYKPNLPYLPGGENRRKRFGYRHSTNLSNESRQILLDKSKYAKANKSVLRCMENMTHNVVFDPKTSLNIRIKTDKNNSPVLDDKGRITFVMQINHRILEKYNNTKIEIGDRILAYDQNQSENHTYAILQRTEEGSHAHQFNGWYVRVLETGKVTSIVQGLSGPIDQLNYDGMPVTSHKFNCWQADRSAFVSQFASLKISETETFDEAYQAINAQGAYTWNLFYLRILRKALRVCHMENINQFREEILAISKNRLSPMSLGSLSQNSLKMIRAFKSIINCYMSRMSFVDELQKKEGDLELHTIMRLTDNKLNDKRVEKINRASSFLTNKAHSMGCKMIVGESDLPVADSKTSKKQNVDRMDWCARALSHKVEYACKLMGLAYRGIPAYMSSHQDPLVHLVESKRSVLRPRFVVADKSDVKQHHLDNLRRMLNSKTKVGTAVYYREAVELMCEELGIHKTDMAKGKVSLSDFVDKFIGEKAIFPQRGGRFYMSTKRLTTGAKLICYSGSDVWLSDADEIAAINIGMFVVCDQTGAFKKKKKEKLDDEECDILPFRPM
In words: cell_activity; fold change in % indels, HEK293T; PAM not stated in example. The method, then: (§1) Approximately 16 hours prior to transfection, 100 μl of 25,000 HEK293T cells in DMEM/10% FBS+Pen/Strep were plated into each well of a 96-well plate. On the day of transfection, the cells were 70-90% confluent. For each well to be transfected, a mixture of 0.5 μl of Lipofectamine 2000 and 9.5 μl of Opti-MEM was prepared and then incubated at room temperature for 5-20 minutes (Solution 1). […] In the case of negative controls, the crRNA was not included in Solution 2. The solution 1 and solution 2 mixtures were mixed by pipetting up and down and then incubated at room temperature for 25 minutes. Following incubation, 20 μL of the Solution 1 and Solution 2 mixture were added dropwise to each well of a 96 well plate containing the cells. 72 hours post transfection, cells are trypsinized by adding 10 μL of TrypLE to the center of each well and incubated for approximately 5 minutes. 100 μL of D10 media was then added to each well and mixed to resuspend cells. The cells were then spun down at 500 g for 10 minutes, and the supernatant was discarded. QuickExtract buffer was added to ⅕ the amount of the original cell suspension volume. Cells were incubated at 65° C. for 15 minutes, 68° C. for 15 minutes, and 98° C. for 10 minutes.
(§2) Samples for Next Generation Sequencing were prepared by two rounds of PCR. The first round (PCR1) was used to amplify specific genomic regions depending on the target. PCR1 products were purified by column purification. Round 2 PCR (PCR2) was done to add Illumina adapters and indexes. Reactions were then pooled and purified by column purification. Sequencing runs were done with a 150 cycle NextSeq v2.5 mid or high output kit.

Another data set deals with T2, Cas12i3 S801R (Unidentified, S801R).
T2 chain: T1 chain with R559S, S801R
The data set is described as above. The method, then:
as §1, §2

Numbering of substitutions follows the chain as printed.

B1: EMX1_T5 crRNA ; EMX1_T5 target (ssRNA ; dsDNA)
RNA: AUAGUGUGUCCUUAGUUGACAUUAUUAUUCCCAUAGGGAAGG
DNA 1: TATTATTCCCATAGGGAAGG
DNA 2: CCTTCCCTATGGGAATAATA
Consider B1, for which the values for the binding signal with Cas12i3 S559R and in the data set with Cas12i3 S801R were 0.95 fold of wild-type and 1.44 fold of wild-type, respectively.

B2: VEGFA_T2 crRNA ; VEGFA_T2 target (ssRNA ; dsDNA)
RNA: AUAGUGUGUCCUUAGUUGACAUAAUCCUCCACCAGUCAUGGU
DNA 1: AATCCTCCACCAGTCATGGT
DNA 2: ACCATGACTGGTGGAGGATT
As for B2, the binding signal in the data set with Cas12i3 S559R is 1.17 fold of wild-type; in the data set with Cas12i3 S801R, 1.74 fold of wild-type.

B3: AAVS1_T3 crRNA ; AAVS1_T3 target (ssRNA ; dsDNA)
RNA: AUAGUGUGUCCUUAGUUGACAUGUGAGAAUGGUGCGUCCUAG
DNA 1: GTGAGAATGGTGCGTCCTAG
DNA 2: CTAGGACGCACCATTCTCAC
For the molecule B3, the binding signal in the data set with Cas12i3 S559R is 1.28 fold of wild-type; in the data set with Cas12i3 S801R, 2.2 fold of wild-type.
